The source of these data is paper PMC4087149.

Data set [1] is described as follows: cell lysate anti-myc blot. Particulars: glycan lost; control: wild type.
The nature of data set [2]: in-gel HA digestion, alcian blue staining. Particulars: glycan lost; control: wild type.

B1: hyaluronidase1 (HYAL1): N99Q (protein)
parent chain: MAAHLLPICALFLTLLDMAQGFRGPLLPNRPFTTVWNANTQWCLERHGVDVDVSVFDVVANPGQTFRGPDMTIFYSSQLGTYPYYTPTGEPVFGGLPQNASLIAHLARTFQDILAAIPAPDFSGLAVIDWEAWRPRWAFNWDTKDIYRQRSRALVQAQHPDWPAPQVEAVAQDQFQGAARAWMAGTLQLGRALRPRGLWGFYGFPDCYNYDFLSPNYTGQCPSGIRAQNDQLGWLWGQSRALYPSIYMPAVLEGTGKSQMYVQHRVAEAFRVAVAAGDPNLPVLPYVQIFYDTTNHFLPLDELEHSLGESAAQGAAGVVLWVSWENTRTKESCQAIKEYMDTTLGPFILNVTSGALLCSQALCSGHGRCVRRTSHPKALLLLNPASFSIQLTPGGGPLSLRGALSLEDQAQMAVEFKCRCYPGWQAPWCERKSMW
On to B1, for which the expression_or_secretion entry in data set [1] is given as “decreases”.

B2: hyaluronidase1 (HYAL1): N216Q (protein)
parent chain: MAAHLLPICALFLTLLDMAQGFRGPLLPNRPFTTVWNANTQWCLERHGVDVDVSVFDVVANPGQTFRGPDMTIFYSSQLGTYPYYTPTGEPVFGGLPQNASLIAHLARTFQDILAAIPAPDFSGLAVIDWEAWRPRWAFNWDTKDIYRQRSRALVQAQHPDWPAPQVEAVAQDQFQGAARAWMAGTLQLGRALRPRGLWGFYGFPDCYNYDFLSPNYTGQCPSGIRAQNDQLGWLWGQSRALYPSIYMPAVLEGTGKSQMYVQHRVAEAFRVAVAAGDPNLPVLPYVQIFYDTTNHFLPLDELEHSLGESAAQGAAGVVLWVSWENTRTKESCQAIKEYMDTTLGPFILNVTSGALLCSQALCSGHGRCVRRTSHPKALLLLNPASFSIQLTPGGGPLSLRGALSLEDQAQMAVEFKCRCYPGWQAPWCERKSMW
Turning to B2, in data set [1], the expression_or_secretion entry is “decreases”. Further, the enzymatic_activity result in data set [2] is “decreases”.

B3: hyaluronidase1 (HYAL1): N350Q (protein)
parent chain: MAAHLLPICALFLTLLDMAQGFRGPLLPNRPFTTVWNANTQWCLERHGVDVDVSVFDVVANPGQTFRGPDMTIFYSSQLGTYPYYTPTGEPVFGGLPQNASLIAHLARTFQDILAAIPAPDFSGLAVIDWEAWRPRWAFNWDTKDIYRQRSRALVQAQHPDWPAPQVEAVAQDQFQGAARAWMAGTLQLGRALRPRGLWGFYGFPDCYNYDFLSPNYTGQCPSGIRAQNDQLGWLWGQSRALYPSIYMPAVLEGTGKSQMYVQHRVAEAFRVAVAAGDPNLPVLPYVQIFYDTTNHFLPLDELEHSLGESAAQGAAGVVLWVSWENTRTKESCQAIKEYMDTTLGPFILNVTSGALLCSQALCSGHGRCVRRTSHPKALLLLNPASFSIQLTPGGGPLSLRGALSLEDQAQMAVEFKCRCYPGWQAPWCERKSMW
As for B3, in data set [1], the expression_or_secretion result was “decreases”. For the same protein, the enzymatic_activity result in data set [2] was “decreases”.
